From US20230212319A1, “NOVEL ANTIGEN BINDING DOMAINS AND SYNTHETIC ANTIGEN RECEPTORS INCORPORATING THE SAME” (University of Southern California, priority 2020, published 2023)

B1: 22046 (protein)
chain: MALPVTALLLPLALLLHAARPQLQLQESGPGLVKPSETLSLTCTVSGDSISSGDYYWGWIRQPPGKGLEWIGHIYYSGVTYYNPSLKSRVTISVDTSRNQFSLKLSSVTAADTAVYYCTREDSSNWRSRGQGTLVTVSSLESGGGGSFEEVQLLESGGGLVQPGGSLRLSCAASGFTFSSYAMSWVRQAPGKGLEWVSSISGSGDYIYYADSVKGRFTISRDISKNTLYLQMNSLRAEDTAVYYCAKEGTGANSSLADYRGQGTLVTVSSTRDKTHTCPPCPAIPEDTFFPSPESSCDVKLVEKSFETDTNLNFQNLSVIGFRILLLKVAGFNLLMTLRLWSSRAKRSGSGVKQTLNFDLLKLAGDVESNPGPSRGHMTEYKPTVRLATRDDVPRAVRTLAAAFADYPATRHTVDPDRHIERVTELQELFLTRVGLDIGKVWVADDGAAVAVWTTPESVEAGAVFAEIGPRMAELSGSRLAAQQQMEGLLAPHRPKEPAWFLATVGVSPDHQGKGLGSAVVLPGVEAAERAGVPAFLETSAPRNLPFYERLGFTVTADVEVPEGPRTWCMTRKPGA
B2: 22021 (protein)
chain: MALPVTALLLPLALLLHAARPQLQLQESGPGLVKPSETLSLTCTVSGDSISSGDYYWGWIRQPPGKGLEWIGHIYYSGVTYYNPSLKSRVTISVDTSRNQFSLKLSSVTAADTAVYYCTREDSSNWRSRGQGTLVTVSSLESGGGGSFEEVQLLESGGGLVQPGGSLRLSCAASGFTFSSYAMSWVRQAPGKGLEWVSSISGSGDYIYYADSVKGRFTISRDISKNTLYLQMNSLRAEDTAVYYCAKEGTGANSSLADYRGQGTLVTVSSTRIQNPDPAVYQLRDSKSSDKSVCLFTDFDSQTNVSQSKDSDVYITDKCVLDMRSMDFKSNSAVAWSNKSDFACANAFNNSIIPEDTFFPSPESSCDVKLVEKSFETDTNLNFQNLSVIGFRILLLKVAGFNLLMTLRLWSSRAKRSGSGVKQTLNFDLLKLAGDVESNPGPSRGHMTEYKPTVRLATRDDVPRAVRTLAAAFADYPATRHTVDPDRHIERVTELQELFLTRVGLDIGKVWVADDGAAVAVWTTPESVEAGAVFAEIGPRMAELSGSRLAAQQQMEGLLAPHRPKEPAWFLATVGVSPDHQGKGLGSAVVLPGVEAAERAGVPAFLETSAPRNLPFYERLGFTVTADVEVPEGPRTWCMTRKPGA
B3: 22019 (protein)
chain: MALPVTALLLPLALLLHAARPLEGKPIPNPLLGLDSTGSGEDLKNVFPPEVAVFEPSKAEIAHTQKATLVCLATGFYPDHVELSWWVNGKEVHSGVCTDPQPLKEQPALNDSRYCLSSRLRVSATFWQNPRNHFRCQVQFYGLSENDEWTQDRAKPVTQIVSAEAWGRADCGITSASYHQGVLSATILYEILLGKATLYAVLVSALVLMAMVKRKDSRGRAKRSGSGATNFSLLKQAGDVEENPGPTSTMALPVTALLLPLALLLHAARPQLQLQESGPGLVKPSETLSLTCTVSGDSISSGDYYWGWIRQPPGKGLEWIGHIYYSGVTYYNPSLKSRVTISVDTSRNQFSLKLSSVTAADTAVYYCTREDSSNWRSRGQGTLVTVSSLESGGGGSFEVQLLESGGGLIQPGGSLRLSCAASGFTFSSHAMTWVRQAPGKGLEWVSAISGSGDYTHYADSVKGRFTISRDNSKNTVYLQMNSLRAEDSAVYYCAKDEDGGSLLGHRGQGTLVTVSSTREQKLISEEDGSGIQNPDPAVYQLRDSKSSDKSVCLFTDFDSQTNVSQSKDSDVYITDKCVLDMRSMDFKSNSAVAWSNKSDFACANAFNNSIIPEDTFFPSSDVPCDVKLVEKSFETDTNLNFQNLSVIGFRILLLKVAGFNLLMTLRLWSSRAKRSGSGVKQTLNFDLLKLAGDVESNPGPSRGHMTEYKPTVRLATRDDVPRAVRTLAAAFADYPATRHTVDPDRHIERVTELQELFLTRVGLDIGKVWVADDGAAVAVWTTPESVEAGAVFAEIGPRMAELSGSRLAAQQQMEGLLAPHRPKEPAWFLATVGVSPDHQGKGLGSAVVLPGVEAAERAGVPAFLETSAPRNLPFYERLGFTVTADVEVPEGPRTWCMTRKPGA
B4: 22060 (protein)
chain: MALPVTALLLPLALLLHAARPQLQLQESGPGLVKPSETLSLTCTVSGDSISSGDYYWGWIRQPPGKGLEWIGHIYYSGVTYYNPSLKSRVTISVDTSRNQFSLKLSSVTAADTAVYYCTREDSSNWRSRGQGTLVTVSSLEGSGGGGSGGGGSGEDLKNVFPPEVAVFEPSEAEISHTQKATLVCLATGFYPDHVELSWWVNGKEVHSGVCTDPQPLKEQPALNDSRYCLSSRLRVSATFWQNPRNHFRCQVQFYGLSENDEWTQDRAKPVTQIVSAEAWGRADCGFTSESYQQGVLSATILYEILLGKATLYAVLVSALVLMAMVKRKDSRGRAKRSGSGATNFSLLKQAGDVEENPGPTSMDWIWRILFLVGAATGAHSFEVQLLESGGGLIQPGGSLRLSCAASGFTFSSHAMTWVRQAPGKGLEWVSAISGSGDYTHYADSVKGRFTISRDNSKNTVYLQMNSLRAEDSAVYYCAKDEDGGSLLGHRGQGTLVTVSSTRIQNPDPAVYQLRDSKSSDKSVCLFTDFDSQTNVSQSKDSDVYITDKCVLDMRSMDFKSNSAVAWSNKSDFACANAFNNSIIPEDTFFPSPESSCDVKLVEKSFETDTNLNFQNLSVIGFRILLLKVAGFNLLMTLRLWSSRAKRSGSGVKQTLNFDLLKLAGDVESNPGPSRGHMTEYKPTVRLATRDDVPRAVRTLAAAFADYPATRHTVDPDRHIERVTELQELFLTRVGLDIGKVWVADDGAAVAVWTTPESVEAGAVFAEIGPRMAELSGSRLAAQQQMEGLLAPHRPKEPAWFLATVGVSPDHQGKGLGSAVVLPGVEAAERAGVPAFLETSAPRNLPFYERLGFTVTADVEVPEGPRTWCMTRKPGA
B5: 22035 (protein)
chain: MALPVTALLLPLALLLHAARPQLQLQESGPGLVKPSETLSLTCTVSGDSISSGDYYWGWIRQPPGKGLEWIGHIYYSGVTYYNPSLKSRVTISVDTSRNQFSLKLSSVTAADTAVYYCTREDSSNWRSRGQGTLVTVSSLDSGGGGSFEQLQLQESGPGLVKPSETLSLTCTVSGGSISSGDYYWGWIRQPPGKGLEWIGHIYYSGATYYNPSLKSRVTISVDTSRNQFSLKLSSVTAADTAVYYCTRDDSSNWRSRGQGTLVTVSSTRIQNPDPAVYQLRDSKSSDKSVCLFTDFDSQTNVSQSKDSDVYITDKTVLDMRSMDFKSNSAVAWSNKSDFACANAFNNSIIPEDTFFPSPESSCDVKLVEKSFETDTNLNFQNLSVIGFRILLLKVAGFNLLMTLRLWSSRAKRSGSGVKQTLNFDLLKLAGDVESNPGPSRGHMTEYKPTVRLATRDDVPRAVRTLAAAFADYPATRHTVDPDRHIERVTELQELFLTRVGLDIGKVWVADDGAAVAVWTTPESVEAGAVFAEIGPRMAELSGSRLAAQQQMEGLLAPHRPKEPAWFLATVGVSPDHQGKGLGSAVVLPGVEAAERAGVPAFLETSAPRNLPFYERLGFTVTADVEVPEGPRTWCMTRKPGA
B6: 22049 (protein)
chain: MALPVTALLLPLALLLHAARPQLQLQESGPGLVKPSETLSLTCTVSGDSISSGDYYWGWIRQPPGKGLEWIGHIYYSGVTYYNPSLKSRVTISVDTSRNQFSLKLSSVTAADTAVYYCTREDSSNWRSRGQGTLVTVSSLEGQPKANPTVTLFPPSSEELQANKATLVCLISDFYPGAVTVAWKADGSPVKAGVETTKPSKQSNNKYAASSYLSLTPEQWKSHRSYSCQVTHEGSTVEKTVAPTECSPIKTDVITMDPKDNCSKDANDTLLLQLTNTSAYYMYLLLLLKSVVYFAIITCCLLRRTAFCCNGEKSRAKRSGSGATNFSLLKQAGDVEENPGPTSMDWIWRILFLVGAATGAHSFEVQLLESGGGLIQPGGSLRLSCAASGFTFSSHAMTWVRQAPGKGLEWVSAISGSGDYTHYADSVKGRFTISRDNSKNTVYLQMNSLRAEDSAVYYCAKDEDGGSLLGHRGQGTLVTVSSTRASTKGPSVFPLAPSSKSTSGGTAALGCLVKDYFPEPVTVSWNSGALTSGVHTFPAVLQSSGLYSLSSVVTVPSSSLGTQTYICNVNHKPSNTKVDKRVEPKSCEVKTDSTDHVKPKETENTKQPSKSCHKPKAIVHTEKVNMMSLTVLGLRMLFAKTVAVNFLLTAKLFFLRAKRSGSGVKQTLNFDLLKLAGDVESNPGPSRGHMTEYKPTVRLATRDDVPRAVRTLAAAFADYPATRHTVDPDRHIERVTELQELFLTRVGLDIGKVWVADDGAAVAVWTTPESVEAGAVFAEIGPRMAELSGSRLAAQQQMEGLLAPHRPKEPAWFLATVGVSPDHQGKGLGSAVVLPGVEAAERAGVPAFLETSAPRNLPFYERLGFTVTADVEVPEGPRTWCMTRKPGA

Key:
Format in all cases: cell-based
RAJI cells = experiment: JNG assay, co-culture with RAJI cells; details: JNG cells expressing construct, co-culture with Raji
Outline: (§1)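 Jurkat-NFAT-GFP (JNG) cells stably expressing SAR constructs via lentiviral transduction and puromycin/blasticidin selection were cocultured with target cells at E:T ~1:2 for ~4–18 h. NFAT-driven GFP was measured by FACS versus parental JNG cells; scores +/- to 5+ denote ~5–50% GFP-positive cells.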

L363 cells = experiment: JNG assay, co-culture with L363 cells; details: co-culture with L363
Outline: as §1

Nalm6 cells = experiment: JNG assay, co-culture with Nalm6 cells; details: co-culture with Nalm6
Outline: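 SAR-JNG (lentiviral spinfection, drug-selected) + target cells, E:T ≈1:2, ≈4–18 h; FACS for GFP; positivity = %GFP+ over parental JNG; grades +/- to 5+ ≈ 5–50% GFP+.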

Molecule | NFAT-GFP ASSAY: Raji (RAJI cells) | NFAT-GFP ASSAY: L363 (L363 cells) | NFAT-GFP ASSAY: Nalm6 (Nalm6 cells)
B1 | 2+ (refer to approximately 5%, 10%, 20%, 30%, 40% and 50% GFP positive cells) | + (refer to approximately 5%, 10%, 20%, 30%, 40% and 50% GFP positive cells) | +/- (refer to approximately 5%, 10%, 20%, 30%, 40% and 50% GFP positive cells)
B2 | Raji (+/-), Nalm6 (+/-), L363 (+/-) (refer to approximately 5%, 10%, 20%, 30%, 40% and 50% GFP positive cells) | Raji (+/-), Nalm6 (+/-), L363 (+/-) (refer to approximately 5%, 10%, 20%, 30%, 40% and 50% GFP positive cells) | Raji (+/-), Nalm6 (+/-), L363 (+/-) (refer to approximately 5%, 10%, 20%, 30%, 40% and 50% GFP positive cells)
B3 | + (refer to approximately 5%, 10%, 20%, 30%, 40% and 50% GFP positive cells) | + (refer to approximately 5%, 10%, 20%, 30%, 40% and 50% GFP positive cells) | +/- (refer to approximately 5%, 10%, 20%, 30%, 40% and 50% GFP positive cells)
B4 | 2+ (refer to approximately 5%, 10%, 20%, 30%, 40% and 50% GFP positive cells) | 2+ (refer to approximately 5%, 10%, 20%, 30%, 40% and 50% GFP positive cells) | +/- (refer to approximately 5%, 10%, 20%, 30%, 40% and 50% GFP positive cells)
B5 | Raji (+/-), Nalm6 (+/-), L363 (+/-) (refer to approximately 5%, 10%, 20%, 30%, 40% and 50% GFP positive cells) | Raji (+/-), Nalm6 (+/-), L363 (+/-) (refer to approximately 5%, 10%, 20%, 30%, 40% and 50% GFP positive cells) | Raji (+/-), Nalm6 (+/-), L363 (+/-) (refer to approximately 5%, 10%, 20%, 30%, 40% and 50% GFP positive cells)
B6 |  | +/- (refer to approximately 5%, 10%, 20%, 30%, 40% and 50% GFP positive cells) | +/- (refer to approximately 5%, 10%, 20%, 30%, 40% and 50% GFP positive cells)
